Results: patent US20190177366

Experiments:
[1] = tested on: T1, Compound 118
T1 sequence: WNLVXIGLTR

[2] = tested on: T2, Compound 26
T2 sequence: SGCFIPWNLQRIGLLC

[3] = tested on: T3, Compound 29
T3 sequence: SGCFIPWNLQRIGLLC

[4] = tested on: T4, Pep2-8-ctrl
T4 sequence: TVATSAEEYLLWV

[5] = tested on: T5, Pep2-8
T5 sequence: TVFTSWEEYLDWV

**Q.** With PCSK9-R167A:R215A:R218A as the substance, how does the “FXIa cleavage of the P′ helix (immunoblot)” value (“FXIa cleavage of the P′ helix” below) [1] read?
**A.** resulted in a higher degree of P′ helix cleavage by FXIa as compared to the peptide Compound 112

**Q.** And the “FXIa cleavage of the P′ helix” value [2]?
**A.** both groove binding peptides accelerated the cleavage reaction, leading to almost complete cleavage of the P′ helix

**Q.** And the “FXIa cleavage of the P′ helix” value [3]?
**A.** both groove binding peptides accelerated the cleavage reaction, leading to almost complete cleavage of the P′ helix

**Q.** And the “FXIa cleavage of the P′ helix” value [4]?
**A.** The control peptide did not inhibit cleavage and gave similar results as the buffer control

**Q.** And the “FXIa cleavage of the P′ helix” value [5]?
**A.** both reagents largely prevented cleavage of the P′ helix by FXIa
